Results reported in US20180334702A1 (SYSMEX, published 2018).
No end group written: not given here. *: point of attachment. aminohexane = linker joining biotin to the N-terminal residue; Biotin = O=C1N[C@H]2[C@H](CS[C@H]2CCCCC(=O)*)N1

B1: Polypeptide 28 (peptide)
peptide: {Biotin-aminohexane}-GAPWSPDPWDDGGGG
B2: Polypeptide 3 (peptide)
peptide: {Biotin-aminohexane}-GAPWSPNPWWRGGGG
B3: Polypeptide 27 (peptide)
peptide: {Biotin-aminohexane}-GAPWSPNDWWDGGGG
B4: Comparative Polypeptide 3 (peptide)
peptide: {Biotin-aminohexane}-PYKISEGLPTPTKMTPRSRI-NH2
B5: Comparative Polypeptide 4 (peptide)
peptide: {Biotin-aminohexane}-PYKISEGLPTPAKMAPRSRI-NH2
B6: Comparative Polypeptide 2 (peptide)
peptide: {Biotin-aminohexane}-RRRFRPASPLRGPPK
B7: Comparative Polypeptide 1 (peptide)
peptide: {Biotin-aminohexane}-PYKISEGLPTPTKMTPRSRI
B8: Polypeptide 1 (peptide)
peptide: {Biotin-aminohexane}-GMPWSPNPWWRGGGG
B9: Comparative Polypeptide 7 (peptide)
peptide: {Biotin-aminohexane}-LVEMTGLSPRVIRVW
B10: Comparative Polypeptide 5 (peptide)
peptide: {Biotin-aminohexane}-GGGKAPLTPKKAK
B11: Polypeptide 22 (peptide)
peptide: {Biotin-aminohexane}-GGGKAPLTPKDAD
B12: Polypeptide 26 (peptide)
peptide: {Biotin-aminohexane}-LVEMTGLSPRDIRVD
B13: Polypeptide 18 (peptide)
peptide: {Biotin-aminohexane}-RRRFRPASPLDGPPD
B14: Comparative Polypeptide 6 (peptide)
peptide: {Biotin-aminohexane}-GGGRAAPLSPIPHIPR
B15: Polypeptide 25 (peptide)
peptide: {Biotin-aminohexane}-GGGRAAPLSPIDHIPD
B16: Polypeptide 23 (peptide)
peptide: {Biotin-aminohexane}-GGGKAPLTPLDAD
B17: Polypeptide 24 (peptide)
peptide: {Biotin-aminohexane}-GGGRAAPLSPDPHIPD

Biological target: T1, CDK1/cyclin A2 (UniProt P06493 1-297; P20248 1-432, limits assumed)
T1 sequence (P06493 whole entry, chain 1 of 2): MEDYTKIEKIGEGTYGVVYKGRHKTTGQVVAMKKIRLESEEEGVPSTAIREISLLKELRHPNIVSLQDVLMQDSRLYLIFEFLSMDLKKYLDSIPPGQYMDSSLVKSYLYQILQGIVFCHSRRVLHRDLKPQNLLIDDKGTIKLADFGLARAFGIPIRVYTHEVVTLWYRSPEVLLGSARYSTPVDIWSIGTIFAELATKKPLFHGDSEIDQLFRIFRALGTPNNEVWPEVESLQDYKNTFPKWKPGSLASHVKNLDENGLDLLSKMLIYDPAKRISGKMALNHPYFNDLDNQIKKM
T1 sequence (P20248 whole entry, chain 2 of 2): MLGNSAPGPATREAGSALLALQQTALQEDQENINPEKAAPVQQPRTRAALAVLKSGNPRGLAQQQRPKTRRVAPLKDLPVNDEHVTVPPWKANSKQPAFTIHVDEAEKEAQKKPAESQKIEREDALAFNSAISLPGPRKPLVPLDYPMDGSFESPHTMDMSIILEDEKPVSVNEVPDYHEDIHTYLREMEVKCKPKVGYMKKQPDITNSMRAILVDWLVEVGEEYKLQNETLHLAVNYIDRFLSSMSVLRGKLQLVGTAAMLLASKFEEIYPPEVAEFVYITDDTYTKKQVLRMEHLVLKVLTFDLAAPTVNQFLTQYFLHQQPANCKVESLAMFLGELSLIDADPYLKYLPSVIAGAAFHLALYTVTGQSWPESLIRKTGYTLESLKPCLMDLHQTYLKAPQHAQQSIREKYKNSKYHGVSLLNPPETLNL
Test: cell-based or functional assay

Binder | relative reactivity (Polypeptide 3 = 100%)
B1 | 4%
B2 | 100%
B3 | 13%

Biological target: T2, CDK4/cyclin D3 (UniProt P11802 1-303; P30281 1-292)
T2 sequence (P11802 whole entry, chain 1 of 2): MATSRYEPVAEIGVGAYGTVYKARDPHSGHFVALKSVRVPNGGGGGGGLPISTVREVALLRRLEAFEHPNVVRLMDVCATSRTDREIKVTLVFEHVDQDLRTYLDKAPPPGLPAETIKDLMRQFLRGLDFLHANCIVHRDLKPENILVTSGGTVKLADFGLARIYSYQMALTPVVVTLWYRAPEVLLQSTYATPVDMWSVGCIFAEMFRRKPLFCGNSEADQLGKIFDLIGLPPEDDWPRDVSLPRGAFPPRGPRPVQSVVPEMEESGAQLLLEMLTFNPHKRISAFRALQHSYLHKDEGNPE
T2 sequence (P30281 whole entry, chain 2 of 2): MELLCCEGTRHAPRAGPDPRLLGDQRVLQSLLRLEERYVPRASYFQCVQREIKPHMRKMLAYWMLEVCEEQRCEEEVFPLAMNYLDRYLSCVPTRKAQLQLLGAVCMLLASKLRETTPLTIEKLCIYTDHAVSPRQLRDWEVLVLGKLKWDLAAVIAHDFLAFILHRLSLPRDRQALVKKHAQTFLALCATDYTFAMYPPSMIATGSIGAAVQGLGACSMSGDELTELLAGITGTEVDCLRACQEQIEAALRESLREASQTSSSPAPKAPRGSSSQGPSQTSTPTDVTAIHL
Test: cell-based or functional assay

Binder | relative reactivity (Polypeptide 3 = 100%)
B1 | 50%
B2 | 100%
B3 | 37%

Biological target: T3, CDK6/cyclin D3 (UniProt Q00534 1-326; P30281 1-292)
T3 sequence (Q00534 whole entry, chain 1 of 2): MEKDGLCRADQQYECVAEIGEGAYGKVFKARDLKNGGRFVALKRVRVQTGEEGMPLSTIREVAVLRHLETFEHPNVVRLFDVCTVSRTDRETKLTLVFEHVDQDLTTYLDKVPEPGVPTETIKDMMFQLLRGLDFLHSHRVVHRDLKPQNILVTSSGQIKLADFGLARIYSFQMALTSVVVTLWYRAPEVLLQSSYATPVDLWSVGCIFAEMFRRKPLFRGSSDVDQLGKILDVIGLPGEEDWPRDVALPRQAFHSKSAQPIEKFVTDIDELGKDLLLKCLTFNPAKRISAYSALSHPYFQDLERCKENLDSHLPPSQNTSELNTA
T3 sequence (P30281 whole entry, chain 2 of 2): as the sequence (P30281 whole entry, chain 2 of 2) above
Test: cell-based or functional assay

Binder | relative reactivity (Polypeptide 3 = 100%)
B1 | 25%
B2 | 100%
B3 | 33%

Biological target: T4, CDK2/cyclin E1 (UniProt P24941 1-298; P24864 1-410)
Test: cell-based or functional assay

Binder | relative reactivity (Polypeptide 3 = 100%)
B1 | 13%
B2 | 100%
B3 | 20%

Biological target: T1, CDK1/cyclin A2
Test: cell-based or functional assay
Remark: another data set of the same source

Binder | relative luminescence intensity (CDK6 = 100%)
B4 | 678%
B5 | 3250%
B6 | 606%

Biological target: T2, CDK4/cyclin D3
Test: cell-based or functional assay
Remark: another data set of the same source

Binder | relative luminescence intensity (CDK6 = 100%)
B4 | 7%
B6 | 51%

Biological target: T4, CDK2/cyclin E1
Test: cell-based or functional assay
Remark: another data set of the same source

Binder | relative luminescence intensity (CDK6 = 100%)
B4 | 766%
B5 | 2680%
B6 | 198%

Biological target: T1, CDK1/cyclin A2
Test: cell-based or functional assay
Remark: another data set of the same source

Binder | Luminescence intensity
B7 | 6.76e+07
B8 | 9.32e+07
B6 | 4.15e+07

Biological target: T2, CDK4/cyclin D3
Test: cell-based or functional assay
Remark: another data set of the same source

Binder | Luminescence intensity
B7 | 811000
B8 | 1.01e+08
B6 | 5.44e+06

Biological target: T3, CDK6/cyclin D3
Test: cell-based or functional assay
Remark: another data set of the same source

Binder | Luminescence intensity
B7 | 7.42e+06
B8 | 1.22e+08
B6 | 1.73e+07

Biological target: T4, CDK2/cyclin E1
Test: cell-based or functional assay
Remark: another data set of the same source

Binder | Luminescence intensity
B7 | 1.04e+08
B8 | 9.92e+07
B6 | 1.62e+07

Biological target: T1, CDK1/cyclin A2
Test: cell-based or functional assay
Remark: another data set of the same source

Binder | relative value of the luminescence intensity (Comparative Polypeptide 2 = 1.00)
B7 | 1.63 relative value
B8 | 2.24 relative value
B6 | 1 relative value

Biological target: T2, CDK4/cyclin D3
Test: cell-based or functional assay
Remark: another data set of the same source

Binder | relative value of the luminescence intensity (Comparative Polypeptide 2 = 1.00)
B7 | 0.15 relative value
B8 | 18.6 relative value
B6 | 1 relative value

Biological target: T3, CDK6/cyclin D3
Test: cell-based or functional assay
Remark: another data set of the same source

Binder | relative value of the luminescence intensity (Comparative Polypeptide 2 = 1.00)
B7 | 0.43 relative value
B8 | 7.06 relative value
B6 | 1 relative value

Biological target: T4, CDK2/cyclin E1
Test: cell-based or functional assay
Remark: another data set of the same source

Binder | relative value of the luminescence intensity (Comparative Polypeptide 2 = 1.00)
B7 | 6.44 relative value
B8 | 6.12 relative value
B6 | 1 relative value

Biological target: T1, CDK1/cyclin A2
Test: cell-based or functional assay
Remark: another data set of the same source

Binder | relative luminescence intensity (CDK6 = 100%)
B9 | 1150%
B10 | 143%
B11 | 27%
B12 | 295%
B13 | 22%
B14 | 119%
B6 | 318%

Biological target: T2, CDK4/cyclin D3
Test: cell-based or functional assay
Remark: another data set of the same source

Binder | relative luminescence intensity (CDK6 = 100%)
B9 | 55%
B10 | 56%
B11 | 46%
B12 | 18%
B13 | 14%
B15 | 40%
B16 | 37%
B14 | 190%
B17 | 54%
B6 | 245%

Biological target: T4, CDK2/cyclin E1
Test: cell-based or functional assay
Remark: another data set of the same source

Binder | relative luminescence intensity (CDK6 = 100%)
B9 | 10%
B10 | 156%
B11 | 15%
B15 | 62%
B14 | 44%
B17 | 54%
B6 | 321%
